{
  "source": "IntAct's records for PubMed 22424946",
  "parents": {"B1": {"name": "Ras-related GTP-binding protein D (Homo sapiens), Q9NQL2 (parent)", "chain": "MSQVLGKPQPQDEDDAEEEEEEDELVGLADYGDGPDSSDADPDSGTEEGVLDFSDPFSTEVKPRILLMGLRRSGKSSIQKVVFHKMSPNETLFLESTNKICREDVSNSSFVNFQIWDFPGQIDFFDPTFDYEMIFRGTGALIFVIDSQDDYMEALARLHLTVTRAYKVNTDINFEVFIHKVDGLSDDHKIETQRDIHQRANDDLADAGLEKIHLSFYLTSIYDHSIFEAFSKVVQKLIPQLPTLENLLNIFISNSGIEKAFLFDVVSKIYIATDSTPVDMQTYELCCDMIDVVIDISCIYGLKEDGAGTPYDKESTAIIKLNNTTVLYLKEVTKFLALVCFVREESFERKGLIDYNFHCFRKAIHEVFEVRMKVVKSRKVQNRLQKKKRATPNGTPRVLL"}},
  "data": [
    {"variants_of": "B1", "conditions": "with sylc_human LARS1, Q9P2J5", "values": [
      {"variant": "Q121L", "effect of a mutation on the interaction": "increasing interaction strength"},
      {"variant": "S77L", "effect of a mutation on the interaction": "decreasing interaction strength"}
    ]}
  ]
}
